{"source": "patent US20090041744A1", "about": "(published 2009)", "key": {"FVIIa 407C [1]": {"biological_target": "T1, FVIIa 407C (human, UniProt P08709 61-212; P08709 213-466, N-glycosylated Asn322; engineered Cys407 is largely in mixed disulfides with glutathione, cysteine and homocysteine in the untreated preparation; whether the SPR sample was selectively reduced is not …)", "T1 construct": "range 1-152;range 153-406; Recombinant, expressed in BHK cells; DNA construct as described in WO 02/077218 A1; Light and heavy chain are joined by a disulfide bond; also called Factor VIIa 407C; FVII 407C", "T1 sequence (light)": "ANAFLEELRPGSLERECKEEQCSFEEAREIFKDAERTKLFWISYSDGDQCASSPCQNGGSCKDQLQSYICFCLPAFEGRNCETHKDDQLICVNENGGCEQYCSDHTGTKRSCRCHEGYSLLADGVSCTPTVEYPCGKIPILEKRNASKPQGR", "T1 sequence (heavy)": "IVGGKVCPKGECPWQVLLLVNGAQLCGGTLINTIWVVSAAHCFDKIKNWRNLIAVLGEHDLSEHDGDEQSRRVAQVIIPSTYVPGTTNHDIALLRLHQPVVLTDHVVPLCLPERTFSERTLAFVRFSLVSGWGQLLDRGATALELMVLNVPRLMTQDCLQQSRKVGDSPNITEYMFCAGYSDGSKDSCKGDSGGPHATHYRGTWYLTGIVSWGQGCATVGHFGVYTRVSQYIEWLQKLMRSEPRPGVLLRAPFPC", "experiment": "SPR (Biacore 3000), biotinylated sTF E219C on SA chip, FVIIa as analyte, 5 mM CaCl2, 1:1 Langmuir fit", "description": "(§1) Surface plasmon resonance (SPR) analysis of the binding of FVIIa 407C, FVIIa 407C-PEG3.4 k-FVIIa 407C, and FVIIa 407C-PEG20k-FVIIa 407C to immobilized soluble tissue factor—Binding of FVIIa 407C and PEGylated variants to immobilized soluble tissue factor was analyzed by surface plasmon resonance analysis on a Biacore 3000 instrument (Biacore AB, Uppsala, Sweden). Prior to immobilization, sTF E219C was biotinylated at its free cysteine by reacting the protein with 2 mM biotin-PEO-iodoacetamide at pH 7.0 for 20 min. Excess reagent was subsequently removed by gelfiltration on a NAP™5 column (Amersham Biosciences AB, Uppsala, Sweden) equilibrated in HBS-P buffer (10 mM HEPES, 150 mM NaCl, 0.005% P20; Biacore AB, Uppsala, Sweden) containing 5 mM CaCl₂. Biotinylated sTF E19C was immobilized at a density of 2.2 fmol/mm² (˜50 RU) in flow cell 2 of a SA sensor chip (Biacore AB, Uppsala, Sweden). Kinetic analysis was performed at a flow rate of 30 μl/min in running buffer (HBS-P buffer containing 5 mM CaCl₂) using the untreated flow cell 1 for automatic in-line reference subtraction. Serial dilutions of protein from 100 nM to approx. 5 nM were analyzed. Following 3 min equilibration of the flow cells in running buffer, 90 μl protein sample was injected using the KINJECT command. The dissociation phase lasted 9 min and regeneration was performed with a 3-min pulse of 20 mM EDTA in HBS-P buffer. […]"}, "FVIIa 407C [2]": {"biological_target": "T1, FVIIa 407C", "experiment": "SPR (Biacore 3000), biotinylated sTF E219C on SA chip, FVIIa as analyte; KD calculated from kon and koff", "description": "as §1"}, "[3]": {"biological_target": "T2, FVIIa 407C-PEG3.4k-FVIIa 407C (human, UniProt P08709 61-212; P08709 213-466, N-glycosylated Asn322; Cys407 of the two protomers cross-linked through maleimide-PEG3.4k-maleimide; 10 gamma-carboxylated glutamic acid (GLA) residues; O-glycosylated Ser52 and Ser60; N-glycosylated …)", "T2 construct": "range 1-152;range 153-406", "T2 sequence (light)": "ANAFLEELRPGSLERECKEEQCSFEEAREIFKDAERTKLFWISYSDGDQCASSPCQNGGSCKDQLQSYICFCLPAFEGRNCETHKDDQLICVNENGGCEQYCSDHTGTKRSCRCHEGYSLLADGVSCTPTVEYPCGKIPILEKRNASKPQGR", "T2 sequence (heavy)": "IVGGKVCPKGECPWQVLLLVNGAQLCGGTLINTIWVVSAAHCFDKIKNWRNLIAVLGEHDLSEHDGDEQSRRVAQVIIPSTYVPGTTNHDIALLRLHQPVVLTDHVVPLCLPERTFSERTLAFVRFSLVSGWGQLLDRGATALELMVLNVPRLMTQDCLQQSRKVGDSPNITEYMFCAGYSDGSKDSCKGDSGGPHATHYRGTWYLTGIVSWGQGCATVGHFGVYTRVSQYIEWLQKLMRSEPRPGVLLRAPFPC", "experiment": "SPR (Biacore 3000), biotinylated sTF E219C on SA chip, FVIIa dimer as analyte, 5 mM CaCl2, 1:1 Langmuir fit", "description": "(§2) Surface plasmon resonance (SPR) analysis of the binding of FVIIa 407C, FVIIa 407C-PEG3.4 k-FVIIa 407C, and FVIIa 407C-PEG20k-FVIIa 407C to immobilized soluble tissue factor—Binding of FVIIa 407C and PEGylated variants to immobilized soluble tissue factor was analyzed by surface plasmon resonance analysis on a Biacore 3000 instrument (Biacore AB, Uppsala, Sweden). Prior to immobilization, sTF E219C was biotinylated at its free cysteine by reacting the protein with 2 mM biotin-PEO-iodoacetamide at pH 7.0 for 20 min. Excess reagent was subsequently removed by gelfiltration on a NAP™5 column (Amersham Biosciences AB, Uppsala, Sweden) equilibrated in HBS-P buffer (10 mM HEPES, 150 mM NaCl, 0.005% P20; Biacore AB, Uppsala, Sweden) containing 5 mM CaCl₂. Biotinylated sTF E19C was immobilized at a density of 2.2 fmol/mm² (˜50 RU) in flow cell 2 of a SA sensor chip (Biacore AB, Uppsala, Sweden). Kinetic analysis was performed at a flow rate of 30 μl/min in running buffer (HBS-P buffer containing 5 mM CaCl₂) using the untreated flow cell 1 for automatic in-line reference subtraction. Serial dilutions of protein from 100 nM to approx. 5 nM were analyzed. Following 3 min equilibration of the flow cells in running buffer, 90 μl protein sample was injected using the KINJECT command. The dissociation phase lasted 9 min and regeneration was performed with a 3-min pulse of 20 mM EDTA in HBS-P buffer. SPR data were fitted to a 1:1 Langmuir binding model using BIAevaluation 4.1 software (Biacore AB, Uppsala, Sweden)."}, "[4]": {"biological_target": "T3, FVIIa 407C-PEG20k-FVIIa 407C (human, UniProt P08709 61-212; P08709 213-466, N-glycosylated Asn322; Cys407 of the two protomers cross-linked through maleimide-PEG20k-maleimide; 10 gamma-carboxylated glutamic acid (GLA) residues; O-glycosylated Ser52 and Ser60; N-glycosylated …)", "T3 construct": "range 1-152;range 153-406", "T3 sequence (light)": "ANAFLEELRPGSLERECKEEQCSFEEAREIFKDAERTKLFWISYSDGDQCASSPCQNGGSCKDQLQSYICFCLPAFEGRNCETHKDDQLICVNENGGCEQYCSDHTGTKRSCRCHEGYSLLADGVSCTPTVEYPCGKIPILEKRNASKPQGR", "T3 sequence (heavy)": "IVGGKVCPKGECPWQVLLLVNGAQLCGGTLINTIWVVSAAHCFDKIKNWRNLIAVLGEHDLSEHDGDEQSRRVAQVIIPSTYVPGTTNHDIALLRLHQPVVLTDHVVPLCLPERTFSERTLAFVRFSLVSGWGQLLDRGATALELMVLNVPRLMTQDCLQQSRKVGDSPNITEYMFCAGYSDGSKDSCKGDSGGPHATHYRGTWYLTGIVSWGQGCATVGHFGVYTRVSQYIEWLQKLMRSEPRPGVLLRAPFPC", "experiment": "SPR (Biacore 3000), biotinylated sTF E219C on SA chip, FVIIa dimer as analyte, 5 mM CaCl2, 1:1 Langmuir fit", "description": "as §2"}, "[5]": {"biological_target": "T2, FVIIa 407C-PEG3.4k-FVIIa 407C", "experiment": "SPR (Biacore 3000), biotinylated sTF E219C on SA chip, FVIIa dimer as analyte; KD calculated from kon and koff", "description": "as §1"}, "[6]": {"biological_target": "T3, FVIIa 407C-PEG20k-FVIIa 407C", "experiment": "SPR (Biacore 3000), biotinylated sTF E219C on SA chip, FVIIa dimer as analyte; KD calculated from kon and koff", "description": "as §1"}}, "data": [{"binder": "sTF (1-219) Glu219→Cys (E219C), biotinylated (receptor, Cys219 alkylated with biotin-PEO-iodoacetamide (biotinylated at its free cysteine) ; chain 1 pos 219: Cys alkylated with biotin-PEO-iodoacetamide (biotinylated at its free cysteine), written C. It was captured through this biotin on a streptavidin (SA) sensor chip., Immobilized on a streptavidin (SA) sensor chip at 2.2 fmol/mm^2 (~50 RU); also called sTF E219C; biotinylated sTF E19C) SGTTNTVAAYNLTWKSTNFKTILEWEPKPVNQVYTVQISTKSGDWKSKCFYTTDTECDLTDEIVKDVKQTYLARVFSYPAGNVESTGSAGEPLYENSPEFTPYLETNLGQPTIQSFEQVGTKVNVTVEDERTLVRRNNTFLSLRDVFGKDLIYTLYYWKSSSSGKKTAKTNTNEFLIDVDKGENYCFSVQAVIPSRTVNRKSTDSPVECMGQEKGEFRC", "values": [{"measurement": "koff", "setting": "FVIIa 407C [1]", "value": 0.0015, "unit": "s⁻¹"}, {"measurement": "kon", "setting": "FVIIa 407C [1]", "value": 280000, "unit": "M⁻¹ s⁻¹"}, {"measurement": "Kd", "setting": "FVIIa 407C [2]", "value": 5.5, "unit": "nM"}, {"measurement": "koff", "setting": "[3]", "value": 0.00015, "unit": "s⁻¹"}, {"measurement": "kon", "setting": "[3]", "value": 350000, "unit": "M⁻¹ s⁻¹"}, {"measurement": "koff", "setting": "[4]", "value": 0.00016, "unit": "s⁻¹"}, {"measurement": "kon", "setting": "[4]", "value": 310000, "unit": "M⁻¹ s⁻¹"}, {"measurement": "Kd", "setting": "[5]", "value": 0.4, "unit": "nM"}, {"measurement": "Kd", "setting": "[6]", "value": 0.5, "unit": "nM"}]}]}
